{"source": "patent US10765761B2", "about": "“Nucleic acid condensing peptide, nucleic acid condensing peptide set, nucleic acid delivery carrier, nucleic acid delivery method, cell production method, cell detection method and kit” (KABUSHIKI KAISHA TOSHIBA, priority 2016, dated 2020)", "key": {"plasmid vector (pDNA)": {"system": "plasmid vector (pDNA)", "experiment": "Average particle diameter, polydispersity index and Zeta potential of peptide-nucleic-acid complexes, Example 6", "format": "physicochemical", "conditions": "peptide-nucleic-acid complex, total peptide 0.24 mg/ml, pDNA 0.15 mg/ml", "description": "Each of the peptides was dissolved into 10 mM-HEPES (pH: 5.4) to prepare several peptide solutions having different peptide concentrations.\nFor the mHP-1, one peptide solution was prepared to have a peptide concentration of (1) 0.24 mg/ml. For the mHP-2, one peptide solution was prepared to have a peptide concentration of (2) 0.24 mg/ml. For the mHP-1 and mHP-2, five peptide solutions were prepared to have a total peptide concentration of 0.24 mg/ml and mixture ratios between mHP-1 and mHP-2 of: (3) 1:1, (4) 1:3, (5) 1:5, (6) 1:7 and (7) 1:9. Meanwhile, plasmid vector (pDNA) was diluted with purified water to prepare a nucleic acid solution having a pDNA concentration of 0.15 mg/ml.\nThe peptide solutions (1) to (7) (100 μL) were prepared in tubes and the nucleic acid solution (200 μL) was dropped and mixed thereto while stirring each solution to condense the nucleic acids, and thus peptide-nucleic-acid complexes were obtained.\nThe peptide-nucleic-acid complexes were investigated in terms of average particle diameter, polydispersity index and Zeta potential using the respective peptide-nucleic-acid solutions. The average particle diameter, polydispersity index and Zeta potential were measured using a zetasizer."}, "[1]": {"experiment": "Average particle diameter, polydispersity index and Zeta potential of liposome (Complex), Example 8", "format": "physicochemical", "description": "COATSOME/SS-20 (Nippon Oil & Fats), DOPE, cholesterol and DMG-PEG were dissolved into ethanol at a molar ratio of 5:3:1:0.3, to obtain a lipid solution. Five sets of 50 μL of lipid solutions put into tubes were prepared, and 50 μL of peptide-nucleic-acid solutions (1) to (4) and (7) of Example 6 were dropped thereto while stirring each lipid solution, thereby forming liposomes. 400 μL of 10 mM-HEPES (pH: 5.4) was added to each of the liposome solutions to make a total amount of 500 μL (this liposome solution will be referred to as “Complex” hereinafter).\nThe average particle diameter, polydispersity index and Zeta potential of liposome were investigated using the Complex. The average particle diameter, polydispersity index and Zeta potential were measured using a zetasizer."}}}
{"sequence": "RQRQRYYRQRQRGGRRRRRR (Nucleic acid condensing peptide) [mHP-1]", "values": [{"measurement": "Average particle diameter (zAve)", "setting": "plasmid vector (pDNA)", "result": 156.6, "unit": "nm"}, {"measurement": "Polydispersity index (PDI)", "setting": "plasmid vector (pDNA)", "result": 0.190}, {"measurement": "Zeta potential", "setting": "plasmid vector (pDNA)", "result": "−31.1", "unit": "mV"}, {"measurement": "Average particle diameter (zAve)", "setting": "[1]", "result": 244.7, "unit": "nm"}, {"measurement": "Polydispersity index (PDI)", "setting": "[1]", "result": 0.193}, {"measurement": "Zeta potential", "setting": "[1]", "result": 31.6, "unit": "mV"}]}
